In PMC8534323:

T1: enolase (Eno1) (C. albicans (endogenous in strain ATCC 10231)), P30575
T1 chain: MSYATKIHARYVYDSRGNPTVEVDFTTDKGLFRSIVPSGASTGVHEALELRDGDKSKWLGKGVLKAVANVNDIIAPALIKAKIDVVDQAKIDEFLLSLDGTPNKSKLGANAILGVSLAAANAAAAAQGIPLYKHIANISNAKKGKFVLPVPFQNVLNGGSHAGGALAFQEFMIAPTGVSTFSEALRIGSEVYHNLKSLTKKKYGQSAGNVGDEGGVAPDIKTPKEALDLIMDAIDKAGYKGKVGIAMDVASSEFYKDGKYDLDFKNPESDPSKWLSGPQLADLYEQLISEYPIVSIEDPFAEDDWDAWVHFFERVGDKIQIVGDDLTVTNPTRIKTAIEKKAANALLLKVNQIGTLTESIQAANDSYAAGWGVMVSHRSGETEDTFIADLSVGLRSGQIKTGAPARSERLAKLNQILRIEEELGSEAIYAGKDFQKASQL

T2: Phosphoglycerate mutase 1 (Gpm1), recombinant (C. albicans), P82612
T2 chain: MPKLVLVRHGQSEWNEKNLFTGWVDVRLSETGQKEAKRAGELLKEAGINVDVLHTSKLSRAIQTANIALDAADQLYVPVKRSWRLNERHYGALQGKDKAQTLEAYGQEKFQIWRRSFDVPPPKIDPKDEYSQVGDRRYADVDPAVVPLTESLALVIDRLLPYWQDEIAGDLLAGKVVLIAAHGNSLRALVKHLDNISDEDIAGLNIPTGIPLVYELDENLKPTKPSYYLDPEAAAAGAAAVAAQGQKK


Legend:
[1] = biological target: T1, enolase (Eno1) (C. albicans (endogenous …)); assay: SPR; conditions: remark: other sources report otherwise
[2] = biological target: T2, Phosphoglycerate mutase 1 (Gpm1), …; assay: SPR; conditions: remark: other sources report otherwise

Row | Binder | Kd [1] | Kd [2]
1 | human neutrophil elastase (HNE), P08246 30-267 (enzyme, here or on the partner: sulfo-SBED crosslinker in the cross-linking experiment; in flow cytometry preincubated or not with 10 µM N-(Methoxysuccinyl)-Ala-Ala-Pro-Val-chloromethyl ketone) IVGGRRARPHAWPFMVSLQLRGGHFCGATLIAPNFVMSAAHCVANVNVRAVRVVLGAHNLSRREPTRQVFAVQRIFENGYDPVNLLNDIVILQLNGSATINANVQVAQLPAQGRRLGNGVQCLAMGWGLLGRNRGIASVLQELNVTVVTSLCRRSNVCTLVRGRQAGVCFGDSGSPLVCNGLIHGIASFVRGGCASGLYPDAFAPVAQFVNWIDSIIQRSEDNPCPHPRDPDPASRTH | 36.1 nM | 
2 | lactotransferrin (LF), P02788 20-710 (natural protein, here or on the partner: NHS-fluorescein label in flow cytometry; sulfo-SBED crosslinker in the cross-linking experiment) GRRRSVQWCAVSQPEATKCFQWQRNMRKVRGPPVSCIKRDSPIQCIQAIAENRADAVTLDGGFIYEAGLAPYKLRPVAAEVYGTERQPRTHYYAVAVVKKGGSFQLNELQGLKSCHTGLRRTAGWNVPIGTLRPFLNWTGPPEPIEAAVARFFSASCVPGADKGQFPNLCRLCAGTGENKCAFSSQEPYFSYSGAFKCLRDGAGDVAFIRESTVFEDLSDEAERDEYELLCPDNTRKPVDKFKDCHLARVPSHAVVARSVNGKEDAIWNLLRQAQEKFGKDKSPKFQLFGSPSGQKDLLFKDSAIGFSRVPPRIDSGLYLGSGYFTAIQNLRKSEEEVAARRARVVWCAVGEQELRKCNQWSGLSEGSVTCSSASTTEDCIALVLKGEADAMSLDGGYVYTAGKCGLVPVLAENYKSQQSSDPDPNCVDRPVEGYLAVAVVRRSDTSLTWNSVKGKKSCHTAVDRTAGWNIPMGLLFNQTGSCKFDEYFSQSCAPGSDPRSNLCALCIGDEQGENKCVPNSNERYYGYTGAFRCLAENAGDVAFVKDVTVLQNTDGNNNEAWAKDLKLADFALLCLDGKRKPVTEARSCHLAMAPNHAVVSRMDKVERLKQVLLHQQAKFGRNGSDCPDKFCLFQSETKNLLFNDNTECLARLHGKTTYEKYLGPQYVAGITNLKKCSTSPLLEACEFLRK | 72.2 nM | 21.4 nM
